Columns and labels:
[1] = biological target: Fc receptors on U937 cells (human; IFNγ-activated or non-activated) (human); test: flow cytometry competition on IFNγ-activated U937 cells; competitor 1 µM BDB; Nip228 at 0.001-5 µM
[2] = biological target: Fc receptors on U937 cells (human; IFNγ-activated or non-activated) (human); test: flow cytometry competition on IFNγ-activated U937 cells; competitor 1 µM cp33; Nip228 at 0.001-5 µM

control monoclonal human IgG1 (Nip228, MedImmune Ltd), unlabelled (antibody)
IgG1 concentration above which the peptide is displaced [1]: 10 nM | IgG1 concentration above which the peptide is displaced [2]: 10 nM
